Experimental data reported in paper PMC2582393 (Developmental cell, 2008).
Numbering of substitutions follows the chain as printed.

T1: GST-CDC-48.3 (N+D1), amino acids 1-441 (C. elegans, UniProt Q21222 1-441)
T1 sequence (looked up): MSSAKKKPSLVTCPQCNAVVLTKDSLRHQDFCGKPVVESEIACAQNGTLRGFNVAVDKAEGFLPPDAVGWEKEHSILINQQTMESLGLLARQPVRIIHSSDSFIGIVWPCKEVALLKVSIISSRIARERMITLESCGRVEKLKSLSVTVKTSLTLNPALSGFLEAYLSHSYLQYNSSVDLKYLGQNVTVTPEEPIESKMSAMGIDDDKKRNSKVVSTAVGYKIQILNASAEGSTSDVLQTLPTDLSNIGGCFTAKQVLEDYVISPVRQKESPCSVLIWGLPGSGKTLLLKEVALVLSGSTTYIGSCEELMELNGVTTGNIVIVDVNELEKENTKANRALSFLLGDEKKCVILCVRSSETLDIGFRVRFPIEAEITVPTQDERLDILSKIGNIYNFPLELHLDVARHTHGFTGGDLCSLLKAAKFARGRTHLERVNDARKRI

T2: GST-CDC-48.3 (N+D1) K285T (C. elegans, UniProt Q21222 1-441, K285T)
T2 sequence (looked up): T1 sequence (looked up) with K285T

T3: GST-CDC-48.3 full-length (FL), amino acids 1-724 (C. elegans, UniProt Q21222 1-724)
T3 sequence (looked up): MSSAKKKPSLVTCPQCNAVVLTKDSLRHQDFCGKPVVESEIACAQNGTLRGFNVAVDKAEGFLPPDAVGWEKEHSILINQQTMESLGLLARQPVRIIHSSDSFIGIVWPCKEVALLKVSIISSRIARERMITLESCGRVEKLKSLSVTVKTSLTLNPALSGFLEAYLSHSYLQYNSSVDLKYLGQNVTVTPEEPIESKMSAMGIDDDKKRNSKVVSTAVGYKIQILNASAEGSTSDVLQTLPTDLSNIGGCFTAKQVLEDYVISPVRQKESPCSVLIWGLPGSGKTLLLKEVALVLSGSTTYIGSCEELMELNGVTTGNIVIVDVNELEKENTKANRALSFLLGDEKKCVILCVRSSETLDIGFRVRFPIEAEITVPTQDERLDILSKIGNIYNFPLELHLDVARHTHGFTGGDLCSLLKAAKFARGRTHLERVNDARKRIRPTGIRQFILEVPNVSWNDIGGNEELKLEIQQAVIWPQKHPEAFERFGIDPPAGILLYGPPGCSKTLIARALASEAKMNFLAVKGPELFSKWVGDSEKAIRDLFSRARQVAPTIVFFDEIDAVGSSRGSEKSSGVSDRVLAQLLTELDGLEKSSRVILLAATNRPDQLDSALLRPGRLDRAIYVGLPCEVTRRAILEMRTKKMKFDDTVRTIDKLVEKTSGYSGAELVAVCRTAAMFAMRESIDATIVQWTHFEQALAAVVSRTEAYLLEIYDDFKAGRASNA

B1: GST-CDC-48.3 N (amino acids 1-225) (domain or fragment, C. elegans, UniProt Q21222 1-225, looked up)
chain: MSSAKKKPSLVTCPQCNAVVLTKDSLRHQDFCGKPVVESEIACAQNGTLRGFNVAVDKAEGFLPPDAVGWEKEHSILINQQTMESLGLLARQPVRIIHSSDSFIGIVWPCKEVALLKVSIISSRIARERMITLESCGRVEKLKSLSVTVKTSLTLNPALSGFLEAYLSHSYLQYNSSVDLKYLGQNVTVTPEEPIESKMSAMGIDDDKKRNSKVVSTAVGYKIQI
B2: AIR-2 (C. elegans Aurora B kinase), recombinant, GST tag removed (enzyme, UniProt O01427 1-305, looked up)
chain: MENKPPVINLPEKETVNTPQKGGKFTINDFEIGRPLGKGKFGSVYLARTKTGHFHVAIKVLFKSQLISGGVEHQLEREIEIQSHLNHPNIIKLYTYFWDAKKIYLVLEYAPGGEMYKQLTVSKRFSEPTAAKYMYEIADALSYCHRKNVIHRDIKPENLLIGSQGELKIGDFGWSVHAPSNKRQTMCGTMDYLPPEMVNGADHSDAVDLWAIGVLCYEFLVGKPPFEHEDQSKTYAAIKAARFTYPDSVKKGARDLIGRLLVVDPKARCTLEQVKEHYWIQGMMEAKIRAEKQQKIEKEASLRNH

What was measured:
Test in all cases: pull-down
[1] = target: B2
[2] = target: T1, GST-CDC-48.3 (N+D1), amino acids 1-441
[3] = target: T2, GST-CDC-48.3 (N+D1) K285T
[4] = target: T3, GST-CDC-48.3 full-length (FL), amino …

Binder | binding result [1] | binding result [2] | binding result [3] | binding result [4]
B1 | binds | – | – | –
B2 | – | binds | binds | binds
